In one experiment the test system is zona-free mouse eggs. Put plainly: In vitro fertilization with zona-free eggs (sperm-oolemma binding and fusion). Type of experiment: cell-based.
For the next experiment, the target named is T1, rSAS1R (Mus musculus, UniProt Q6HA09).
T1 construct: The mature rSAS1R (414 residues); 20 vector-encoded residues including His6 (pET-28b) (N); made in house; host or cells: E. coli BL21DE3
T1 sequence (Q6HA09 22-435): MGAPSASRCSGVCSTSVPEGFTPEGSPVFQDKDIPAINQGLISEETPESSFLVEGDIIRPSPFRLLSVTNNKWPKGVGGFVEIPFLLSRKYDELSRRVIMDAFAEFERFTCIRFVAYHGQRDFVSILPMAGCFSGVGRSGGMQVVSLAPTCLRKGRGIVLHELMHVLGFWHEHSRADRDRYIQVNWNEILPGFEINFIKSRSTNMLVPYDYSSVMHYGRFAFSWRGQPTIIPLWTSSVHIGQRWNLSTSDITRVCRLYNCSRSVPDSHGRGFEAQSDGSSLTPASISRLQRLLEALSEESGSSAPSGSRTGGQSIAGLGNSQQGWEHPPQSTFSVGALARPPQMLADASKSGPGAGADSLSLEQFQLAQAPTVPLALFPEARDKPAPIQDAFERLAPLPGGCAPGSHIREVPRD
T1 sequence (Q9D9X8 94-221 partner limits assumed): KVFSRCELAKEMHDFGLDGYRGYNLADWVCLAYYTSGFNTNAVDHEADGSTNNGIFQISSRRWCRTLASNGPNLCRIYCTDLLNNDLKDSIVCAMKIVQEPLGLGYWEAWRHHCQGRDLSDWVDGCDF
Put plainly: Far-Western analysis between SAS1R and SLLP1. It counts as binding. As for the experimental part: Purified rSAS1R on nitrocellulose membrane was overlaid or not with soluble rSLLP1, washed and probed with anti-SLLP1 antibody.
Purified recombinant SAS1R was resolved by SDS-PAGE and transferred to nitrocellulose membranes. The membrane was probed with c-terminal anti-his monoclonal antibody and developed with TMB. Duplicate SAS1R blotted strips were overlaid with mouse rSLLP1 or not (with 5 μg/ml in blocking buffer i.e., 5% milk in PBS with 0.05% Tween 20 [PBST]) for 90 min at room temperature. Before protein overlay, the strips were incubated with blocking buffer for 1 h. Following overlay, the strips were incubated with either anti-SLLP1 (ADD2) monoclonal antibody for 1 h in blocking buffer. After washing in PBST (×4), the strips were probed with goat anti-mouse HRP secondary antibody in blocking buffer for 1 h, washed in PBST (×4) followed by PBS (×1), and developed with TMB.
To that end, 7.0 μg of recombinant ZEP was loaded onto a 12% SDS gel, subjected to PAGE, and transferred to a nitrocellulose membrane. The membrane was overlaid (OL) with recombinant SLLP1 (2.0 μg/ml) and probed with anti-SLLP1 monoclonal antibody and secondary antibody.

The next experiment deals with T2, recombinant MET (Mus musculus, UniProt Q9CWU5).
T2 construct: A complete cDNA encoding 440 amino acids was amplified from cDNA library (Ambion) of mouse ovary and cloned in pET expression vector; His-tag (pET fusion); made in house; host or cells: E. coli BL21
T2 sequence (Q9CWU5 1-440): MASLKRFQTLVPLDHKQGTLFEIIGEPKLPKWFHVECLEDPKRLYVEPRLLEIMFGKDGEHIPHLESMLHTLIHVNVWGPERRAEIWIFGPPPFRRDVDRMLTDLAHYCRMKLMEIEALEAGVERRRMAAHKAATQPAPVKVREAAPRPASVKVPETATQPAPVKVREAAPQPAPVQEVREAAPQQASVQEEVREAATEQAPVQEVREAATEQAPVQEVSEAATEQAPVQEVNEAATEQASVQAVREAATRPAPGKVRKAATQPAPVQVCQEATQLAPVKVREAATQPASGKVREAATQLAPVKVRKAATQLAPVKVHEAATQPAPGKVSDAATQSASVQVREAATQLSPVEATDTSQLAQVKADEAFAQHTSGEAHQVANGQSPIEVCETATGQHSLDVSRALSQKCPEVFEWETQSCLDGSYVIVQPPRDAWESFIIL
T2 sequence (Q9D9X8 94-221 partner limits assumed): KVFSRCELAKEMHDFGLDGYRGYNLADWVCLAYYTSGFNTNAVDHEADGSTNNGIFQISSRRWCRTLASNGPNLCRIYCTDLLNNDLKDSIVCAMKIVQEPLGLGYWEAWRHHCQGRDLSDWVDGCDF
Put plainly: Far-Western analysis of MET and SLLP1. Type of experiment: binding. The conditions noted are these: 7 μg recombinant MET, recombinant SLLP1 overlay 2 μg/ml. As for the experimental part:
To that end, 7 μg of recombinant MET was loaded on 12% SDS-PAGE and transferred to nitrocellulose. The membrane was overlaid (OL) with recombinant SLLP1 (2 μg/ml) and probed with anti-SLLP1 monoclonal antibody and secondary antibody.

[1] abbreviates: rSLLP1 overlay 5 μg/ml, anti-SLLP1 monoclonal antibody.

The source of these data is patent US9803012B2, “Compositions and methods for regulating SAS1R” (UNIVERSITY OF VIRGINIA PATENT FOUNDATION, priority 2005, dated 2017).

B1: recmSLLP1: mature mouse SLLP1, residues 94 to 221, six-histidine C terminal tag, expressed in E. coli, about 15 kDa (protein)
chain: KVFSRCELAKEMHDFGLDGYRGYNLADWVCLAYYTSGFNTNAVDHEADGSTNNGIFQISSRRWCRTLASNGPNLCRIYCTDLLNNDLKDSIVCAMKIVQEPLGLGYWEAWRHHCQGRDLSDWVDGCDF
modifications: left off: small tags and cut ends
Turning to B1, in the experiment on zona-free mouse eggs, the “percentages of motile spermatozoa compared to the control” value is listed as “no difference”. In addition, in the experiment with rSAS1R (7.0 μg recombinant ZEP, recombinant SLLP1 overlay 2.0 μg/ml), the “binding to recombinant ZEP bands” value is “signal was observed with the upper band of ZEP, but not with the lower band”. In the experiment with rSAS1R (setting [1]), the “interaction with C-terminal SAS1R fragment (~25 kD)” value is recorded as “very weakly” and the “interaction with full length SAS1R doublet (~51, ~50 kD)” value is given as “interacted strongly”. The “binding to purified MET” value with recombinant MET was “strong signal”.
